Here are results for 1 substance from paper PMC5603801.

Broadly, the stoichiometry N is a count of units in the complex or per binding partner.

The target of the experiment is PnpM-His6 (C-terminal His-tagged PnpM, LysR-type transcriptional regulator of Pseudomonas sp. strain WBC-3) (Pseudomonas sp. strain WBC-3). Kind of experiment: SEC; analytical gel filtration of PnpM-His6 on Hiload Superdex 200 pg (1.6 x 60 cm); 10 mM Tris-HCl pH 7.5, 0.1 M NaCl, 5% glycerol; 0.5 ml/min; buffer with or without PNP; native mass from a calibration curve of standard proteins. For orientation: In gel filtration, larger molecules generally elute earlier.

Regarding “PnpM-His6 (C-terminal His-tagged PnpM, LysR-type transcriptional regulator of Pseudomonas sp. strain WBC-3) (natural protein)”, the stoichiometry N is 4.
